Experimental data published in patent US20260125468A1 (NONA BIOSCIENCES SUZHOU, published 2026).

What was measured:
[1] = biological target: T1, CD3 on human T cells (human PBMCs or isolated T cells used as effector cells) (human, UniProt P07766 23-207; P04234 22-171; P09693 23-182); test: cell-based or functional assay
[2] = biological target: T1, CD3 on human T cells (human PBMCs or …); test: cell-based or functional assay; remark: listed apart in the source

T1 sequence (P07766 23-207, chain 1 of 3): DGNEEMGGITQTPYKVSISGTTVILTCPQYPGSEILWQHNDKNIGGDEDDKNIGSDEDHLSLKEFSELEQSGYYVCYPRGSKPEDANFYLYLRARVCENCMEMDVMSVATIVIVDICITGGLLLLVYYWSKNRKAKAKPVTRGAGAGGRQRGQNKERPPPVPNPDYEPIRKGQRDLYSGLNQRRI
T1 sequence (P04234 22-171, chain 2 of 3): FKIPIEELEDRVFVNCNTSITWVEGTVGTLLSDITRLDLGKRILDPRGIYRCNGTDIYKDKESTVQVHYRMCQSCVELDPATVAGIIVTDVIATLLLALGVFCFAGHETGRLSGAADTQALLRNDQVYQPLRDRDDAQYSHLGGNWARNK
T1 sequence (P09693 23-182, chain 3 of 3): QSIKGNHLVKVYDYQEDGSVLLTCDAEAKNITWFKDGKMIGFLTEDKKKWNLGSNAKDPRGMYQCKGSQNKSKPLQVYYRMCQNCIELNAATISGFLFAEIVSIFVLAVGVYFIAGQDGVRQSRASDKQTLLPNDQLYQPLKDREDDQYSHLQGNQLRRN

| Binder | EC50 of T cell-mediated cytotoxicity to MDA-MB-468 (RTCA) [1] | Max cytotoxicity (%) of T cell-mediated cytotoxicity to MDA-MB-468 (RTCA) [1] | EC50 of T cell-mediated cytotoxicity to MDA-MB-468 (RTCA, human T cells, E:T 10:1) [2] |
| --- | --- | --- | --- |
| PR008551, anti-B7H4xCD3 VH(3G11)-Fc-scFv(PR003366), hIgG1(dCH1, KiH, AAA) (bispecific antibody) chain 1: RVHLAESGGGLVQAGGSLRLSCAASGSRLNDNAMAWFRQAPGKEREFVGSIFWTGGNTYYADAVKGRLTISRDNAKNALYLQMNSLKPEDTAVYYCAASRVVWYYCSGYGCSRAGDYVYWGQGTQVTVSSASEPKSSDKTHTCPPCPAPEAAGAPSVFLFPPKPKDTLMISRTPEVTCVVVDVSHEDPEVKFNWYVDGVEVHNAKTKPREEQYNSTYRVVSVLTVLHQDWLNGKEYKCKVSNKALPAPIEKTISKAKGQPREPQVYTLPPCREEMTKNQVSLWCLVKGFYPSDIAVEWESNGQPENNYKTTPPVLDSDGSFFLYSKLTVDKSRWQQGNVFSCSVMHEALHNHYTQKSLSLSPGK chain 2: EIVMTQSPASLSVSPGERATLSCRASQSVSSNLAWYQQKPGQAPRLLIYGASTRATGIPARVSGGGSGTEFTLTISSLQSEDFAVYYCQQYKNWPFTFGPGTKLEIKGGGGSGGGGSGGGGSGGGGSQVQLVQSGAEVKKPGSSMRVSCKASEDTFSSYAISWVRQAPGQGLEWMGGTAPIFGTTNYAQKFQGRVTITADKSTSTAYMELSSLRSEDTAVYYCARGGPYFDYWGQGTLVTVSSASEPKSSDKTHTCPPCPAPEAAGAPSVFLFPPKPKDTLMISRTPEVTCVVVDVSHEDPEVKFNWYVDGVEVHNAKTKPREEQYNSTYRVVSVLTVLHQDWLNGKEYKCKVSNKALPAPIEKTISKAKGQPREPQVCTLPPSREEMTKNQVSLSCAVKGFYPSDIAVEWESNGQPENNYKTTPPVLDSDGSFFLVSKLTVDKSRWQQGNVFSCSVMHEALHNHYTQKSLSLSPGK | 15.2 nM | 90.7% | – |
| PR010983, anti-B7H4xCD3 S136-Fc-scFv(PR003366), hIgG1(dCH1, KIH, AAA) (bispecific antibody) chain 1: EVQLLESGGGLVQPGGSLRLSCAASGRTSGIPAMSWVRQAPGKEREFVAMAWSGGGTIYADSVKGRFTISRDNSKNTLYLQMNSLRAEDTAVYYCAAGRSTSNRADQYNYWGQGTQVTVSSASEPKSSDKTHTCPPCPAPEAAGAPSVFLFPPKPKDTLMISRTPEVTCVVVDVSHEDPEVKFNWYVDGVEVHNAKTKPREEQYNSTYRVVSVLTVLHQDWLNGKEYKCKVSNKALPAPIEKTISKAKGQPREPQVYTLPPCREEMTKNQVSLWCLVKGFYPSDIAVEWESNGQPENNYKTTPPVLDSDGSFFLYSKLTVDKSRWQQGNVFSCSVMHEALHNHYTQKSLSLSPGK chain 2: EIVMTQSPASLSVSPGERATLSCRASQSVSSNLAWYQQKPGQAPRLLIYGASTRATGIPARVSGGGSGTEFTLTISSLQSEDFAVYYCQQYKNWPFTFGPGTKLEIKGGGGSGGGGSGGGGSGGGGSQVQLVQSGAEVKKPGSSMRVSCKASEDTFSSYAISWVRQAPGQGLEWMGGTAPIFGTTNYAQKFQGRVTITADKSTSTAYMELSSLRSEDTAVYYCARGGPYFDYWGQGTLVTVSSASEPKSSDKTHTCPPCPAPEAAGAPSVFLFPPKPKDTLMISRTPEVTCVVVDVSHEDPEVKFNWYVDGVEVHNAKTKPREEQYNSTYRVVSVLTVLHQDWLNGKEYKCKVSNKALPAPIEKTISKAKGQPREPQVCTLPPSREEMTKNQVSLSCAVKGFYPSDIAVEWESNGQPENNYKTTPPVLDSDGSFFLVSKLTVDKSRWQQGNVFSCSVMHEALHNHYTQKSLSLSPGK | – | – | 0.0602 nM |
| PR010982, anti-B7H4xCD3 S135-Fc-scFv(PR003366), hIgG1(dCH1, KIH, AAA) (bispecific antibody) chain 1: EVQLLESGGGLVQPGGSLRLSCAASGRTSGIPAMSWVRQAPGKGLEWVAMAWSGGGTIYADSVKGRFTISRDNSKNTLYLQMNSLRAEDTAVYYCAAGRSTSNRADQYNYWGQGTLVTVSSASEPKSSDKTHTCPPCPAPEAAGAPSVFLFPPKPKDTLMISRTPEVTCVVVDVSHEDPEVKFNWYVDGVEVHNAKTKPREEQYNSTYRVVSVLTVLHQDWLNGKEYKCKVSNKALPAPIEKTISKAKGQPREPQVYTLPPCREEMTKNQVSLWCLVKGFYPSDIAVEWESNGQPENNYKTTPPVLDSDGSFFLYSKLTVDKSRWQQGNVFSCSVMHEALHNHYTQKSLSLSPGK chain 2: EIVMTQSPASLSVSPGERATLSCRASQSVSSNLAWYQQKPGQAPRLLIYGASTRATGIPARVSGGGSGTEFTLTISSLQSEDFAVYYCQQYKNWPFTFGPGTKLEIKGGGGSGGGGSGGGGSGGGGSQVQLVQSGAEVKKPGSSMRVSCKASEDTFSSYAISWVRQAPGQGLEWMGGTAPIFGTTNYAQKFQGRVTITADKSTSTAYMELSSLRSEDTAVYYCARGGPYFDYWGQGTLVTVSSASEPKSSDKTHTCPPCPAPEAAGAPSVFLFPPKPKDTLMISRTPEVTCVVVDVSHEDPEVKFNWYVDGVEVHNAKTKPREEQYNSTYRVVSVLTVLHQDWLNGKEYKCKVSNKALPAPIEKTISKAKGQPREPQVCTLPPSREEMTKNQVSLSCAVKGFYPSDIAVEWESNGQPENNYKTTPPVLDSDGSFFLVSKLTVDKSRWQQGNVFSCSVMHEALHNHYTQKSLSLSPGK | – | – | 0.247 nM |
| PR010984, anti-B7H4xCD3 S137-Fc-scFv(PR003366), hIgG1(dCH1, KIH, AAA) (bispecific antibody) chain 1: EVQLLESGGGLVQPGGSLRLSCAASGRTSGIPAMSWVRQAPGKEREFVAMAWSGGGTIYADSVKGRFTISRDNSKNTLYLQMNSLRAEDTAVYYCAAGRSTSNYADQYNYWGQGTQVTVSSASEPKSSDKTHTCPPCPAPEAAGAPSVFLFPPKPKDTLMISRTPEVTCVVVDVSHEDPEVKFNWYVDGVEVHNAKTKPREEQYNSTYRVVSVLTVLHQDWLNGKEYKCKVSNKALPAPIEKTISKAKGQPREPQVYTLPPCREEMTKNQVSLWCLVKGFYPSDIAVEWESNGQPENNYKTTPPVLDSDGSFFLYSKLTVDKSRWQQGNVFSCSVMHEALHNHYTQKSLSLSPGK chain 2: EIVMTQSPASLSVSPGERATLSCRASQSVSSNLAWYQQKPGQAPRLLIYGASTRATGIPARVSGGGSGTEFTLTISSLQSEDFAVYYCQQYKNWPFTFGPGTKLEIKGGGGSGGGGSGGGGSGGGGSQVQLVQSGAEVKKPGSSMRVSCKASEDTFSSYAISWVRQAPGQGLEWMGGTAPIFGTTNYAQKFQGRVTITADKSTSTAYMELSSLRSEDTAVYYCARGGPYFDYWGQGTLVTVSSASEPKSSDKTHTCPPCPAPEAAGAPSVFLFPPKPKDTLMISRTPEVTCVVVDVSHEDPEVKFNWYVDGVEVHNAKTKPREEQYNSTYRVVSVLTVLHQDWLNGKEYKCKVSNKALPAPIEKTISKAKGQPREPQVCTLPPSREEMTKNQVSLSCAVKGFYPSDIAVEWESNGQPENNYKTTPPVLDSDGSFFLVSKLTVDKSRWQQGNVFSCSVMHEALHNHYTQKSLSLSPGK | – | – | 0.576 nM |
| PR006003, anti-B7H4xCD3 VH(E2)-Fc-scFv(PR003366), hIgG1(dCH1, KiH, LALA) (bispecific antibody) chain 1: not shown chain 2: EIVMTQSPASLSVSPGERATLSCRASQSVSSNLAWYQQKPGQAPRLLIYGASTRATGIPARVSGGGSGTEFTLTISSLQSEDFAVYYCQQYKNWPFTFGPGTKLEIKGGGGSGGGGSGGGGSGGGGSQVQLVQSGAEVKKPGSSMRVSCKASEDTFSSYAISWVRQAPGQGLEWMGGTAPIFGTTNYAQKFQGRVTITADKSTSTAYMELSSLRSEDTAVYYCARGGPYFDYWGQGTLVTVSSASEPKSSDKTHTCPPCPAPEAAGGPSVFLFPPKPKDTLMISRTPEVTCVVVDVSHEDPEVKFNWYVDGVEVHNAKTKPREEQYNSTYRVVSVLTVLHQDWLNGKEYKCKVSNKALPAPIEKTISKAKGQPREPQVCTLPPSREEMTKNQVSLSCAVKGFYPSDIAVEWESNGQPENNYKTTPPVLDSDGSFFLVSKLTVDKSRWQQGNVFSCSVMHEALHNHYTQKSLSLSPGK | 0.0465 nM | 95.1% | – |
| PR003899, anti-B7H4xCD3 Fab(PR003886)-Fc-scFv(PR003366), hIgG1(KIH, LALA) (bispecific antibody) heavy: not shown light: QAVVTQEPSLTVSPGGTVTLTCRSSTGAVTTSNYANWVQQKPGQAPRGLIGGTNKRAPWTPARFSGSLLGDKAALTLLGAQPEDEAEYFCALWYSNLWVFGGGTKLTVLGQPKAAPSVTLFPPSSEELQANKATLVCLISDFYPGAVTVAWKADSSPVKAGVETTTPSKQSNNKYAASSYLSLTPEQWKSHRSYSCQVTHEGSTVEKTVAPTECS EIVMTQSPASLSVSPGERATLSCRASQSVSSNLAWYQQKPGQAPRLLIYGASTRATGIPARVSGGGSGTEFTLTISSLQSEDFAVYYCQQYKNWPFTFGPGTKLEIKGGGGSGGGGSGGGGSGGGGSQVQLVQSGAEVKKPGSSMRVSCKASEDTFSSYAISWVRQAPGQGLEWMGGTAPIFGTTNYAQKFQGRVTITADKSTSTAYMELSSLRSEDTAVYYCARGGPYFDYWGQGTLVTVSSASEPKSSDKTHTCPPCPAPEAAGGPSVFLFPPKPKDTLMISRTPEVTCVVVDVSHEDPEVKFNWYVDGVEVHNAKTKPREEQYNSTYRVVSVLTVLHQDWLNGKEYKCKVSNKALPAPIEKTISKAKGQPREPQVCTLPPSREEMTKNQVSLSCAVKGFYPSDIAVEWESNGQPENNYKTTPPVLDSDGSFFLVSKLTVDKSRWQQGNVFSCSVMHEALHNHYTQKSLSLSPGK | 0.112 nM | 96.3% | – |
| PR003733, anti-B7H4xCD3 Fab(PR001848)-Fc-scFv(PR003366), hIgG1(KiH, LALA) (bispecific antibody) heavy: not shown light: QAVVTQEPSLTVSPGGTVTLTCRSSTGAVTTSNYANWVQQKPGQAPRGLIGGTNKRAPWTPARFSGSLLGDKAALTLLGAQPEDEAEYFCALWYSNLWVFGGGTKLTVLGQPKAAPSVTLFPPSSEELQANKATLVCLISDFYPGAVTVAWKADSSPVKAGVETTTPSKQSNNKYAASSYLSLTPEQWKSHRSYSCQVTHEGSTVEKTVAPTECS EIVMTQSPASLSVSPGERATLSCRASQSVSSNLAWYQQKPGQAPRLLIYGASTRATGIPARVSGGGSGTEFTLTISSLQSEDFAVYYCQQYKNWPFTFGPGTKLEIKGGGGSGGGGSGGGGSGGGGSQVQLVQSGAEVKKPGSSMRVSCKASEDTFSSYAISWVRQAPGQGLEWMGGTAPIFGTTNYAQKFQGRVTITADKSTSTAYMELSSLRSEDTAVYYCARGGPYFDYWGQGTLVTVSSASEPKSSDKTHTCPPCPAPEAAGGPSVFLFPPKPKDTLMISRTPEVTCVVVDVSHEDPEVKFNWYVDGVEVHNAKTKPREEQYNSTYRVVSVLTVLHQDWLNGKEYKCKVSNKALPAPIEKTISKAKGQPREPQVCTLPPSREEMTKNQVSLSCAVKGFYPSDIAVEWESNGQPENNYKTTPPVLDSDGSFFLVSKLTVDKSRWQQGNVFSCSVMHEALHNHYTQKSLSLSPGK | 0.0248 nM | 95.2% | – |
